Reference: article PMC7502549 (Journal of molecular biology, 2020)

Target: the molecule itself
Experiment: AUC

B1: Neurotrimin (NTM) extracellular domain, a.a. 36-311, with C-terminal linker and hexahistidine tag (domain or fragment, human, UniProt Q9P121 36-311, looked up)
chain: ATFPKAMDNVTVRQGESATLRCTIDNRVTRVAWLNRSTILYAGNDKWCLDPRVVLLSNTQTQYSIEIQNVDVYDEGPYTCSVQTDNHPKTSRVHLIVQVSPKIVEISSDISINEGNNISLTCIATGRPEPTVTWRHISPKAVGFVSEDEYLEIQGITREQSGDYECSASNDVAAPVVRRVKVTVNYPPYISEAKGTGVPVGQKGTLQCEASAVPSAEFQWYKDDKRLIEGKKGVKVENRPFLSKLIFFNVSEHDYGNYTCVASNKLGHTNASIMLF
modifications: N-linked glycosylation (extensive)
- stoichiometry N: 2
